Data from IntAct's records for PubMed 32296183.

B1: Catenin alpha-3 (Homo sapiens), Q9UI47-2 (parent)
chain: MSAETPITLNIDPQDLQVQTFTVEKLLEPLIIQVTTLVNCPQNPSSRKKGRSKRASVLLASVEEATWNLLDKGEKIAQEATVLKDELTASLEEVRKESEALKVSAERFTDDPCFLPKREAVVQAARALLAAVTRLLILADMIDVMCLLQHVSAFQRTFESLKNVANKSDLQKTYQKLGKELENLDYLAFKRQQDLKSPNQRDEIAGARASLKENSPLLHSICSACLEHSDVASLKASKDTVCEEIQNALNVISNASQGIQNMTTPPEPQAATLGSALDELENLIVLNPLTVTEEEIRPSLEKRLEAIISGAALLADSSCTRDLHRERIIAECNAIRQALQDLLSEYMNNAGKKERSNTLNIALDNMCKKTRDLRRQLRKAIIDHVSDSFLDTTVPLLVLIEAAKNGREKEIKEYAAIFHEHTSRLVEVANLACSMSTNEDGIKIVKIAANHLETLCPQIINAALALAARPKSQAVKNTMEMYKRTWENHIHVLTEAVDDITSIDDFLAVSGMFLFF
partner: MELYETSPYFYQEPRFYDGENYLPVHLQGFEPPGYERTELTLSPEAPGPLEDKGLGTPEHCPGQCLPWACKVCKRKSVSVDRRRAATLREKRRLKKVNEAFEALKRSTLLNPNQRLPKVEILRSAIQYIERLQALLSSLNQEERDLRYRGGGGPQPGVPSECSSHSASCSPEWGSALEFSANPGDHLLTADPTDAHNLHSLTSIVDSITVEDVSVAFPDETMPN
B2: Very-long-chain enoyl-CoA reductase (Homo sapiens), Q9NZ01 (parent)
chain: MKHYEVEILDAKTREKLCFLDKVEPHATIAEIKNLFTKTHPQWYPARQSLRLDPKGKSLKDEDVLQKLPVGTTATLYFRDLGAQISWVTVFLTEYAGPLFIYLLFYFRVPFIYGHKYDFTSSRHTVVHLACICHSFHYIKRLLETLFVHRFSHGTMPLRNIFKNCTYYWGFAAWMAYYINHPLYTPPTYGAQQVKLALAIFVICQLGNFSIHMALRDLRPAGSKTRKIPYPTKNPFTWLFLLVSCPNYTYEVGSWIGFAIMTQCLPVALFSLVGFTQMTIWAKGKHRSYLKEFRDYPPLRMPIIPFLL
partner: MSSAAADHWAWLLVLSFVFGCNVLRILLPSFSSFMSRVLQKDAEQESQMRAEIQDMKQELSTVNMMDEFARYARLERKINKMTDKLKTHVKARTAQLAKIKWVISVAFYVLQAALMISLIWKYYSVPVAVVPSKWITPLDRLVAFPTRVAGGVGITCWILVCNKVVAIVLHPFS
B3: Golgi SNAP receptor complex member 2 (Homo sapiens), O14653 (parent)
chain: MDPLFQQTHKQVHEIQSCMGRLETADKQSVHIVENEIQASIDQIFSRLERLEILSSKEPPNKRQNARLRVDQLKYDVQHLQTALRNFQHRRHAREQQERQREELLSRTFTTNDSDTTIPMDESLQFNSSLQKVHNGMDDLILDGHNILDGLRTQRLTLKGTQKKILDIANMLGLSNTVMRLIEKRAFQDKYFMIGGMLLTCVVMFLVVQYLT
partner: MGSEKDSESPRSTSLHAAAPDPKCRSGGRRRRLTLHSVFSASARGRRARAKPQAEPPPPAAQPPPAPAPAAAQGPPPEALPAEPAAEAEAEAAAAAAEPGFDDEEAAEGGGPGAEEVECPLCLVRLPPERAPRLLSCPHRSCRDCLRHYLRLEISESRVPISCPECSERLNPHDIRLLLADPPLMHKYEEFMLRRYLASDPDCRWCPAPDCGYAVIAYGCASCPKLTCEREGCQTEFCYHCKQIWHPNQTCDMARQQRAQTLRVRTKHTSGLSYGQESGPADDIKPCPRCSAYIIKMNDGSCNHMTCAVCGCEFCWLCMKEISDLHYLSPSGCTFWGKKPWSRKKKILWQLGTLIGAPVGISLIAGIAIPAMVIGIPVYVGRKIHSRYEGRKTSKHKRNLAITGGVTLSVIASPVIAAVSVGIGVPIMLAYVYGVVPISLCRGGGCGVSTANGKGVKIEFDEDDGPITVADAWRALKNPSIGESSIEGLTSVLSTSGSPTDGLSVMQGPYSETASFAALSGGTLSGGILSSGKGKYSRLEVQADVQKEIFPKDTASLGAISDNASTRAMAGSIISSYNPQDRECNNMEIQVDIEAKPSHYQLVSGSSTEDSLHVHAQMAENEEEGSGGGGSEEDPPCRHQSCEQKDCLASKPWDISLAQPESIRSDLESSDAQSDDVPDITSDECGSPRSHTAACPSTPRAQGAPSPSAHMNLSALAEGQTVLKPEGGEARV
B4: Catenin alpha-3 (Homo sapiens), Q9UI47-2 (parent)
chain: B1 chain
partner: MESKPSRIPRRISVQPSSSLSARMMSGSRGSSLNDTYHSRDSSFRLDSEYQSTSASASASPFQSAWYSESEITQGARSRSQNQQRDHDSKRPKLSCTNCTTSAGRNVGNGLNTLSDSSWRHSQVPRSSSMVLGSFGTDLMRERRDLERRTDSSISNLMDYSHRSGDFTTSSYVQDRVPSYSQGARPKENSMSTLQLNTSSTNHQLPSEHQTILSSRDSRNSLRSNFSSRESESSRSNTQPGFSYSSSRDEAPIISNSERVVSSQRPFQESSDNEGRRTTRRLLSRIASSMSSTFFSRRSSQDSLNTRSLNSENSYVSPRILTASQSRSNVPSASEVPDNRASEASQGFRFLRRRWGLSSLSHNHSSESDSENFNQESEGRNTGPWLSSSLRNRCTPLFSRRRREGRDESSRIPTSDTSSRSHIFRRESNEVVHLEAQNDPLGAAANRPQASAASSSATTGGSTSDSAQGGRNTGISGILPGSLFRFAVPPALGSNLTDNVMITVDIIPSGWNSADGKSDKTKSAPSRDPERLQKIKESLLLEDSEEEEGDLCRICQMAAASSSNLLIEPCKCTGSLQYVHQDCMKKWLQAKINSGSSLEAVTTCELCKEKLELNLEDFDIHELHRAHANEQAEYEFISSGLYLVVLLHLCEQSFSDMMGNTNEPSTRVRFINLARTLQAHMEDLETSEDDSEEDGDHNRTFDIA
B5: Catenin alpha-3 (Homo sapiens), Q9UI47-2 (parent)
chain: B1 chain
partner: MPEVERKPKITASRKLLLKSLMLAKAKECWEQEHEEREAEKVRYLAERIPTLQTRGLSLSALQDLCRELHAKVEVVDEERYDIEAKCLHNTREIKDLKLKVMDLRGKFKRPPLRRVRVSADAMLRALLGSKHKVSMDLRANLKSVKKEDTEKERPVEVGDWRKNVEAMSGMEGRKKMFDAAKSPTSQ
B6: Golgi SNAP receptor complex member 2 (Homo sapiens), O14653 (parent)
chain: B3 chain

Variants of: B1
Conditions: with myog_human MYOG

Variant | effect of a mutation on the interaction
V94D | disrupting interaction strength

Variants of: B2
Conditions: with get1_human GET1, O00258

Variant | effect of a mutation on the interaction
P182L | disrupting interaction strength

Variants of: B3
Conditions: with rn19b_human RNF19B

Variant | effect of a mutation on the interaction
G144W | with no effect

Variants of: B4
Conditions: with marh7_human MARCHF7, Q9H992

Variant | effect of a mutation on the interaction
V94D | with no effect

Variants of: B5
Conditions: with tnni1_human TNNI1, P19237

Variant | effect of a mutation on the interaction
V94D | with no effect

Variants of: B6
Conditions: with stx4_human STX4, Q12846
Sequence of stx4_human STX4, Q12846 (Q12846 whole entry): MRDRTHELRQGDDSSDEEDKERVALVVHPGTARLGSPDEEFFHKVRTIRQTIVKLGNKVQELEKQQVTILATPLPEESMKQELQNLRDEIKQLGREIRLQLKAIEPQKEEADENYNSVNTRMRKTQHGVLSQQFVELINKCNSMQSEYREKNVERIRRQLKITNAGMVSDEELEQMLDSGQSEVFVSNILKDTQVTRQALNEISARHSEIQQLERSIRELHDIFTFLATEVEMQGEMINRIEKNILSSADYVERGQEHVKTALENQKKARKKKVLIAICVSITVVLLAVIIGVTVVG

Variant | effect of a mutation on the interaction
G144W | with no effect

Variants of: B6
Conditions: with stx1a_human STX1A

Variant | effect of a mutation on the interaction
G144W | with no effect

Variants of: B6
Conditions: with retr3_human RETREG3, Q86VR2
Sequence of retr3_human RETREG3, Q86VR2 (Q86VR2 whole entry): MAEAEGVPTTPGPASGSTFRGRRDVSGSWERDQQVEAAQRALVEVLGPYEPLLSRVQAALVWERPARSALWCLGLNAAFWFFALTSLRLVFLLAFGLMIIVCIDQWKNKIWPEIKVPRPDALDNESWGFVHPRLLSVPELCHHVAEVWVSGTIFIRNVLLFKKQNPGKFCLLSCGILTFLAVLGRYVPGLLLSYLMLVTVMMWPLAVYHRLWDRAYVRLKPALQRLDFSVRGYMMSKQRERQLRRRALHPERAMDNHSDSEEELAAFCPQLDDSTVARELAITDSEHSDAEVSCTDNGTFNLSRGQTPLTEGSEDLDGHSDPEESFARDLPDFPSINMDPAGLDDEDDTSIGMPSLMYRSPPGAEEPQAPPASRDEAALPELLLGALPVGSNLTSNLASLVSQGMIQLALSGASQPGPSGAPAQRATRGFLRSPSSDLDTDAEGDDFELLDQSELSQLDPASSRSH

Variant | effect of a mutation on the interaction
G144W | with no effect

Variants of: B6
Conditions: with tm205_human TMEM205, Q6UW68
Sequence of tm205_human TMEM205, Q6UW68 (Q6UW68 whole entry): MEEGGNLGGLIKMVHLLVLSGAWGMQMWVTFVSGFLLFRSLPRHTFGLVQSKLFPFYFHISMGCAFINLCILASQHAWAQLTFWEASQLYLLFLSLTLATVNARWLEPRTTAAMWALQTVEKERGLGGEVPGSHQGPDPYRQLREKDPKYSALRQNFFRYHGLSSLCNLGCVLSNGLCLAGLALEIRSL

Variant | effect of a mutation on the interaction
G144W | with no effect

Variants of: B6
Conditions: with ebp_human EBP

Variant | effect of a mutation on the interaction
G144W | with no effect

Variants of: B6
Conditions: with gp152_human GPR152, Q8TDT2
Sequence of gp152_human GPR152, Q8TDT2 (Q8TDT2 whole entry): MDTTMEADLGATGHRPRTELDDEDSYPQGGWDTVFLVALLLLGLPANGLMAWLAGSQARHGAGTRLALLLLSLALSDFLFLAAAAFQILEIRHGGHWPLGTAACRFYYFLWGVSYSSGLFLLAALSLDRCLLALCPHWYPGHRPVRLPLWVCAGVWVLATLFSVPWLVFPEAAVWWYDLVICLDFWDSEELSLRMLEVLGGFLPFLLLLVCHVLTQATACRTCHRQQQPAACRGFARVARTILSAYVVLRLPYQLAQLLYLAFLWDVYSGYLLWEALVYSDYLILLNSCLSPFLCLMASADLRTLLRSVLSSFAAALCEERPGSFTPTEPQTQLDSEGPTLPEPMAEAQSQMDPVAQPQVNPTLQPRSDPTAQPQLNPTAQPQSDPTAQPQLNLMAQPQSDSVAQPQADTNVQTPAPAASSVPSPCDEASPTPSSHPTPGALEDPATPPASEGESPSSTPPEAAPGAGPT

Variant | effect of a mutation on the interaction
G144W | with no effect

Variants of: B6
Conditions: with ar13b_human ARL13B

Variant | effect of a mutation on the interaction
G144W | disrupting interaction strength
